Test results: PMC8982139

Legend:
[1] = biological target: C.1086 NFL (native flexibly linked, with I559P) gp140 trimer (HIV-1 (clade C, C.1086)); test: SEC
[2] = biological target: C.1086 SOSIP gp140 (HIV-1 (clade C, C.1086)); test: SEC
[3] = biological target: C.1086 UFO-v2 gp140 trimer (UFO with E64K/T316W/A433P) (HIV-1 (clade C, C.1086)); test: SEC
[4] = biological target: C.1086 UFO-v2-RQH^173 gp140 trimer (UFO-v2 with K166R/H170Q, H173 kept) (HIV-1 (clade C, C.1086)); test: negative-stain electron microscopy
[5] = biological target: C.1086 UFO-v2-RQH^173 gp140 trimer (UFO-v2 with K166R/H170Q, H173 kept) (HIV-1 (clade C, C.1086)); test: SEC
[6] = biological target: C.1086 UFO-v2-RQH^173 gp140 trimer (UFO-v2 with K166R/H170Q, H173 kept) (HIV-1 (clade C, C.1086)); test: native gel or EMSA
[7] = biological target: C.1086 UFO-v2-RQY^173 gp140 trimer (UFO-v2 with K166R/H170Q/H173Y) (HIV-1 (clade C, C.1086)); test: negative-stain electron microscopy
[8] = biological target: C.1086 UFO-v2-RQY^173 gp140 trimer (UFO-v2 with K166R/H170Q/H173Y) (HIV-1 (clade C, C.1086)); test: native gel or EMSA

C.1086 NFL (native flexibly linked, with I559P) gp140 trimer
stoichiometry N [1]: 3

C.1086 SOSIP gp140
stoichiometry N [2]: 3

C.1086 UFO-v2 gp140 trimer (UFO with E64K/T316W/A433P)
stoichiometry N [3]: 3

C.1086 UFO-v2-RQH^173 gp140 trimer (UFO-v2 with K166R/H170Q, H173 kept)
stoichiometry N [4]: 3
stoichiometry N [5]: 3
stoichiometry N [6]: 3

C.1086 UFO-v2-RQY^173 gp140 trimer (UFO-v2 with K166R/H170Q/H173Y)
stoichiometry N [7]: 3
stoichiometry N [8]: 3
